The values below come from US20120023600A1 (Novartis, published 2012).

Residue numbers refer to the chain shown, from its start. A value given as a limit tells only on which side of the number the result lay.

Experiment [1] concerns the target T1, cynomolgus DKK1 (cynomolgus monkey (Macaca fascicularis), UniProt A0A7N9IE82 32-266).
T1 construct: also called cyno DKK1; monkey DKK1 (Novartis)
T1 sequence: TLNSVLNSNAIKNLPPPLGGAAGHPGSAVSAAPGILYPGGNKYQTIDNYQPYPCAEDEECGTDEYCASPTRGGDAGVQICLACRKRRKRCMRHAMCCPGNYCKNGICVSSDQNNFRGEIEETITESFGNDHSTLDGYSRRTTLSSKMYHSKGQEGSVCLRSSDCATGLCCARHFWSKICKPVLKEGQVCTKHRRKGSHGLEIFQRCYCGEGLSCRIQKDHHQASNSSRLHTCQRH
As to the kind of experiment: solution equilibrium titration (SET), ECL (BioVeris), Fab. The procedure:
(§1) Electrochemiluminescence (ECL) based affinity determination in solution and data evaluation are basically performed as described by Haenel et al., 2005. […] Subsequently, the concentration of unbound Fab is quantified by ECL detection using the M-SERIES® 384 analyzer (BioVeris Europe).
(§2) Affinities are calculated according to Haenel et al., 2005 Anal Biochem 339.1:182-184.

The target in experiment [2] is T2, recombinant human DKK1 (human, UniProt O94907 32-266).
T2 construct: also called Dickkopf-1; rhDKK1
T2 sequence: T1 sequence with N114H, S150T, T166S
Described as above. How it is done: as §1, §2

Experiment [3] concerns the target T3, mouse DKK1 (R&D Systems) (mouse, UniProt O54908 32-272).
T3 construct: Bought protein
T3 sequence (looked up): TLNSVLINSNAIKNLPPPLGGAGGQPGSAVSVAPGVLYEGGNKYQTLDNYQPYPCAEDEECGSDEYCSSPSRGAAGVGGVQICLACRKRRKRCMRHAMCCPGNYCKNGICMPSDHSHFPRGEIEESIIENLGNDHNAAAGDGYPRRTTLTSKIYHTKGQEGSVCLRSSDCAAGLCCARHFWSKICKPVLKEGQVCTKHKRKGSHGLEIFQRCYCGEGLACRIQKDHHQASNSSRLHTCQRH
The experiment is described as above. How it is done: as §1, §2

The target in experiment [4] is T4, DKK1-APP (human, UniProt O94907 32-266).
T4 sequence: T1 sequence with N114H, S150T, T166S
Kind of experiment: cell-based or functional assay.

The target in experiment [5] is T2, recombinant human DKK1. Kind of experiment: cell-based or functional assay.
In a further experiment the target is T5, biotinylated human DKK1 (human, UniProt O94907 32-266, biotinylated (sites not given)).
T5 construct: also called biotinylated DKK1; human recombinant, biotinylated DKK1
T5 sequence: T1 sequence with N114H, S150T, T166S
Kind of experiment: ELISA, biotinylated DKK1 on Neutravidin plates, Fab 1 ug/ml, anti-FLAG-AP detection; single measurement. The procedure: Binding specificity of the matured Fabs in the presence of 50% human serum (HS) is determined. […] After coating of the antigen, wells are blocked with TBS/0.05% Tween (TBS-T) supplemented with 1% BSA for 1 h at room temperature. Purified Fabs described above are diluted either in TBS/4% BSA or TBS/50% HS at a final concentration of 1 μg/ml, added to the coated and blocked wells and the plates are incubated for 1 h at room temperature. For detection, an anti-FLAG alkaline phosphatase (AP)-conjugated antibody (1:5000 dilution in TBST) and the fluorogenic substrate AttoPhos (Roche) are used. After each incubation, the wells of the microtiter plates are washed with TBST five times, except after the final incubation step with the labeled secondary antibody when wells are washed three times.
The fluorescence is measured in a TECAN Spectrafluor plate reader.
A general note: An ELISA detects its analyte on a solid surface through an enzyme-linked reagent.

Experiment [6] has as its target T1, cynomolgus DKK1. As to the kind of experiment: solution equilibrium titration (SET), ECL (BioVeris), IgG. The text has this:
(§3) Electrochemiluminescence (ECL) based affinity determination in solution and data evaluation are basically performed as described by [Haenel et al., 2005], the binding fit model is applied as modified according to [Piehler et al., 1997]). […] Biotinylated human. […] Subsequently, the concentration of unbound. IgG is quantified via ECL detection using the M-384 SERIES® analyzer (BioVeris, Europe).

The target in experiment [7] is T2, recombinant human DKK1. Described as above.
From the text: as §3

For experiment [8], the target named is T3, mouse DKK1 (R&D Systems). The description is as above.
From the text: as §3

In a further experiment the target is T6, rat DKK1 (Novartis) (rat, UniProt A6I0Z0 32-270).
T6 sequence: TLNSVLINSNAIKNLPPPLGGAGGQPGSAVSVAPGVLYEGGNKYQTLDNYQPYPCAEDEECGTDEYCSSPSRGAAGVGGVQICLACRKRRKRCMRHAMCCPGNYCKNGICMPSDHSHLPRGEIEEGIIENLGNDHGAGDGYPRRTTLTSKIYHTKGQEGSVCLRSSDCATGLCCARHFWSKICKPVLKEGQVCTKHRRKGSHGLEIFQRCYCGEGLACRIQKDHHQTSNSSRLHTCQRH
The description is as above.
From the text: as §3

The target in experiment [9] is T3, mouse DKK1 (R&D Systems). Kind of experiment: Cross-reactivity mouse (grade in Table 4).
Experiment [10] concerns the target T1, cynomolgus DKK1. As to the kind of experiment: SPR (Biacore), DKK1 immobilised on CM5 chip, Fab as analyte. The procedure: (§4) Using these clones, kinetic SPR analysis is performed on a. […] The Fab preparations are applied in concentration series of 16-500 nM at a flow rate of 20 μl/min. Association phase is set to 60 s and dissociation phase to 120 s.
(In general: SPR reads the build-up and loss of mass on a sensor chip optically.)

The target in experiment [11] is T2, recombinant human DKK1. The description is as above. How it is done:
as §4

For experiment [12], the target named is T4, DKK1-APP. Kind of experiment: cell-based or functional assay. The source holds these as a separate data set.
Experiment [13] addresses T4, DKK1-APP. As to the kind of experiment: cell-based or functional assay. The source holds these as a separate data set.
Experiment [14] has as its target T1, cynomolgus DKK1. Kind of experiment: SPR (Biacore), DKK1 immobilised on CM5 chip, Fab as analyte. How it is done:
as §4
The source holds these as a separate data set.

The target of experiment [15] is T2, recombinant human DKK1. The experiment is described as above. The procedure:
as §4
This is another data set of the same source.

Experiment [16] deals with T1, cynomolgus DKK1. Described as above. The procedure:
as §4
The source holds these as a separate data set.

Experiment [17] addresses T2, recombinant human DKK1. Described as above. How it is done:
as §4
The source holds these as a separate data set.

B1: MOR04907 (Fab, V domains shown)
VH: QVQLVESGGGLVQPGGSLRLSCAASGFTFNNYGMTWVRQAPGKGLEWVSGISGSGSYTYYADSVKGRFTISRDNSKNTLYLQMNSLRAEDTAVYYCARTIYMDYWGQGTLVTVSS
VL: DIVLTQSPATLSLSPGERATLSCRASQNLFSPYLAWYQQKPGQAPRLLIYGASNRATGVPARFSGSGSGTDFTLTISSLEPEDFAVYYCQQYLSLPTTFGQGTKVEIKR
For orientation: Kd means the free concentration of one partner at which half of the binding sites on the other are occupied at equilibrium, for simple one-to-one binding. On to B1, for which the equilibrium dissociation constant (Kd) worked out at 170 pM with cynomolgus DKK1 [1], 114 pM in the experiment with recombinant human DKK1 [2] and 167 pM in the experiment with mouse DKK1 (R&D Systems) [3]. Moreover, in the experiment with DKK1-APP [4], the “Luciferase reporter assay w/o Kremen; Activity in 15% Human serum (%)” value stood at 54%. In the experiment with recombinant human DKK1 [5], the “TCF/LEF luc assay w/Kremen: EC50” value was determined as 900 pM. In addition, the “Binding activity w/50% Human serum vs 4% BSA (%)” value in the experiment with biotinylated human DKK1 is over 83%.

B2: MOR4910 IgG (antibody, V domains shown)
VH: QVQLVESGGGLVQPGGSLRLSCAASGFTFSSYWMSWVRQAPGKGLEWVSGISYSGSNTHYADSVKGRFTISRDNSKNTLYLQMNSLRAEDTAVYYCARMGIDLDYWGQGTLVTVSS
VL: DIALTQPASVSGSPGQSITISCTGTSSDVGGFNYVSWYQQHPGKAPKLMIHDGSNRPSGVSNRFSGSKSGNTASLTISGLQAEDEADYYCQSWDVSPITAVFGGGTKLTVLG
notes: also called MOR04910 IgG
For B2, the dissociation constant Kd in the experiment with cynomolgus DKK1 [6] was 7 pM; with recombinant human DKK1 [7], 17 pM; with mouse DKK1 (R&D Systems) [8] it was 10 pM; with rat DKK1 (Novartis), 16 pM.

B3: MOR04455 (Fab, V domains shown)
VH: QVQLVESGGGLVQPGGSLRLSCAASGFTFSSYGMSWVRQAPGKGLEWVSGISGSGSYTYYADSVKGRFTISRDNSKNTLYLQMNSLRAEDTAVYYCARHYMDHWGQGTLVTVSS
VL: DIQMTQSPSSLSASVGDRVTITCRASQDISNYLHWYQQKPGKAPKLLIYGASNLQSGVPSRFSGSGSGTDFTLTISSLQPEDFAVYYCQQYDSIPMTFGQGTKVEIKR
notes: Fab with C-terminal FLAG and 6xHis tags
One may read the EC50 as the midpoint of the concentration-response curve. In the case of B3, in the experiment with mouse DKK1 (R&D Systems) [9], the binding result is “binds”. The dissociation constant (Kd) amounted to 1500 pM with cynomolgus DKK1 [10]; 1600 pM in the experiment with recombinant human DKK1 [11]; 1500 pM with cynomolgus DKK1 [14]; 1600 pM with recombinant human DKK1 [15]; 1500 pM with cynomolgus DKK1 [16]; 1600 pM with recombinant human DKK1 [17]. The response with DKK1-APP [12] was half-maximal at 39000 pM (EC50). Besides, the “Luciferase reporter assay; EC50” value in the experiment with DKK1-APP [13] was 39000 pM.

B4: MOR04954 (Fab, V domains shown)
VH: QVQLVESGGGLVQPGGSLRLSCAASGFTFSSYWMSWVRQAPGKGLEWVSVIEHKDKGGTTYYAASVKGRFTISRDNSKNTLYLQMNSLRAEDTAVYYCARHGIDFDHWGQGTLVTVSS
VL: DIALTQPASVSGSPGQSITISCTGTSSDLGGYNYVSWYQQHPGKAPKLMIYDVNNRPSGVSNRFSGSKSGNTASLTISGLQAEDEADYYCQSYASGNTKVVFGGGTKLTVLG
For B4, the dissociation constant (Kd) with cynomolgus DKK1 [1] amounted to 112 pM; with recombinant human DKK1 [2] it was 110 pM; with mouse DKK1 (R&D Systems) [3], 36 pM. The “Luciferase reporter assay w/o Kremen; Activity in 15% Human serum (%)” value with DKK1-APP [4] turned out to be 55%. Moreover, the “TCF/LEF luc assay w/Kremen: EC50” value in the experiment with recombinant human DKK1 [5] was found to be 1300 pM. The “Binding activity w/50% Human serum vs 4% BSA (%)” value in the experiment with biotinylated human DKK1 is over 83%.
